Variants at the floor of the assay were thinned out.
B1: TPR 5TU (parent)
chain: GGAUCUUCUCGAUCUAACAAAAAAGACAAAUCUGCCACAAAGCUUGAGAGCAUCUUCGGAUGCAGAGGCGGCAGCCUUCGGUGGCGCGAUAGCGCCAACGUUCUCAACUAUGACACGCAAAACGCGUGCUCCGUUGAAUGGAGUUUAUCAUG

Variants of: B1
Assay: polymerase ribozyme fitness, log enrichment relative to wild type (log ratio); higher = more active; in vitro selection for triplet polymerase activity
Method in brief: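 Mutant libraries for each subunit of a heterodimeric triplet polymerase ribozyme were made by PCR and then transcribed. Each library underwent one round of in vitro selection in triplicate: annealing with a biotinylated primer, the partner subunit and triplets, frozen incubation at −7 °C, gel excision of extended constructs, streptavidin-bead capture and RT-PCR. Input and output libraries were Illumina-sequenced, and only genotypes with ≥10 input reads and ≥1 read per output were kept. Fitness is the logarithm, base 2, of genotype enrichment over wild-type enrichment, computed from inverse-variance-weighted replicate averages.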

Variant	polymerase ribozyme fitness (log ratio)
GGAUCUUCUCGAUCUAACAACAAACACAAAUCUGCCACAAAGCUUGAGAGCAACUUCGGAUGCAGAGGCGGCAGCCUUCGGUGGCGCGAUAGCGCCAACGUUCUCAACUAUGACACGCAAAACGCGUGCUCCGUUGAAUGGAGUUUAUCAUG [A21C G25C U53A]	-3.09
GGAUCUUCUCGAUCUAACAACAAAAACAAAUCUGCCACAAAGCUUGAGAGCAUCUUCGGAUGCAGAGGCGGCAGCCUUCGGUGGCGCGAUAGCGCCAACGUUCUCAACUAUGACACGCAAAACGCGGGCUCCGUUGAAUGGAGUUUAUCAUG [A21C G25A U127G]	≤ -4.2
GGAUCUUCUCGAUCUAACAACAAAGACAAAUCUCCCACUAAGCUUGAGAGCAUCAUCGGAUGCAGAGGCGGCAGCCUUCGGUGGCGCGAUAGCGGCAACGUUCACAACUAUGACACGCGAAACGCGUGCUCCGUUGAAUGGAGGUAAUCAUG [A21C G34C A39U U55A C95G U104A A119G U144G U146A]	≤ -4.2
GGAUCUUCUCGAUCUAACAACAAAGACAAAUCUACCACAAAGUUUGAGAGCAUCUUCGGCUGCGGAGGCGGCAGCCUUCGGUGGCGCGAUUGCGCCAACGUUCUCAACUAUGACACGCAAAACGCGUGCUCCGUUGAAUGGAGUUUAUCAUG [A21C G34A C43U A60C A64G A91U]	≤ -4.2
GGAUCUUCUCGAUCUAACAACAAAGACAAAUCUGCCACAAAUCUUGAGAGCAUCUUCGGAUGCAGAGGGGGCAGCCUUCGGUGGUGCGAUAGCGCCAUCGUUCUCGACUAUGACACGCAUAACGCGUGCUCCGUUGAAUGGAGUUUAUCAUG [A21C G42U C69G C85U A98U A106G A120U]	≤ -4.2
GGAUCUUCUCGAUCUAACAACAAAGACAAAUCUGUCACAAAGCAUGAGAGCAACUUCGGAUGCAGAGGCGGCAGCCUUCGGUGGCGCGAUAGCGCCAACGGUCUCAACUAUGACACGCAAAACGCGUGCUCCGUUGAAUGGAGUUUAUCAUG [A21C C35U U44A U53A U101G]	≤ -4.2
GGAUCUUCUCGAUCUAACAACAAACACAAAUCUGCCACAAAGCUUGAGAGCAUCUUCGGAUGCAGAGGCGGCAGCGUUCGGUGGCGCGAUAGCGCCAACGUUCUCAACUAUGACACGCAAAACGCGUGCUCCGUUGCAUGGAGUGUAUCAUG [A21C G25C C76G A137C U145G]	≤ -4.2
GGAUCUUCUCGAUCUAACAACAAAGACAAAUCUGACACAAAGCUUGAGAGCAUCUUCGGAUGCAGAGGCGGCAGCCUUCGGUGACGCGAUAGCGCCAACGUUCUCAACUAUGACACACAAAACGCGGGCUCCGUUGAAUGGAGUUUAUCAUG [A21C C35A G84A G117A U127G]	≤ -4.2
GGAUCUUCUCGAUCUAACAACAAAGACAAAUCUGCCACAAAGCUUGAGACCAUCUUCGGCUGCUGGGGCGGCAGCCUUCGGUAGCGCGAUAGCGCCAACGUUCUCAACUAUGACACGCAAAACGCGUGCUCCGUUGAAUGGAGUUUAUCAUG [A21C G50C A60C A64U A66G G83A]	≤ -4.2
GGAUCUUCUCGAUCUAACAACAAAGACAAAUCUGCCACAAAGCUUGAGAGCAUCUUAGGAUGCAGAGGCGGCAGCCUUCGGUGGGGCGAUAGCGCCAACGUUCUCAACUAUGACACGCAAAACGCGUGCGCCGUUGAAUGGAGUUUAUCAUG [A21C C57A C85G U130G]	-4
GGAUCUUCUCGAUCUAACAACAAAAACAAAUCUGCCACAAAGCUUGAGAGCAUCUUCGGAUGCAGAGGCGGCAGCCUUCGGUGGCGCGAUAGCGCCAACGUUCUCAACUAUGACACGCAAAACGCGUGCUCCGUUGAAUGGAGUUUAUCAUG [A21C G25A]	-2.85
GGAUCUUCUCGAUCUAACAACAAAGACAAAUCUGCCACAAAGCUUGAGAGUAUCUUCGGAUGCAGGGGCGGCAGCCUUCGGUGGGGCGAUAGCGCCAACGUUCUCAACUAUGACACGCAAAACGCGUGCUCCGUUGAAUGGAGUUUAUCAUG [A21C C51U A66G C85G]	≤ -4.2
GGAUCUUCUCGAUCUAACAACAAAGACAAAUCUGACACCAAGCUUGAGAGCAUCUUCGGAUGCAGAGGCGGCAGCCUUCGGUGGCGCGAUAGCGCCAACCUUCUCAACUAUGACACGCAAAACGCGUGCUCCGUUUAAUGGAGUUUAUCAUG [A21C C35A A39C G100C G136U]	≤ -4.2
GGAUCUUCUCGAUCUAACAACAAAGACAAAUCUGCCACAAAGUUUGAGAGCAUCUUCGGAUGCAGAGGCGGCAGCCUUGGGUUGCGGGAUGGCGCCAACGUUCUCAACUAUGACACGCUAAACGCGUGCUCCGUUGAAUGAAGUUUAUCAUG [A21C C43U C79G G83U C87G A91G A119U G141A]	≤ -4.2
GGAUCUUCUCGAUCUAACAACAAAGACAAAUCUGCCACAAAGCUUGAGAGCAUCUUCGGAUGCAGAGGCGGCAGCCUUCGGUGGCGCGAUAGAGCCAACGUUCACAACUAUGACACGCAAAACGCGUGCUCCGUUGAAUGCAGGUUAUCAUA [A21C C93A U104A G141C U144G G152A]	≤ -4.2
GGAUCUUCUCGAUCUAACAACAAAGACAAAUCUGCCACAAAGCUUGAGAGCAUCUUCGGAUGCAGAGGCGGCAGCCUUCGGUGGCGGGAUAGCGCCAACGUUCUCAACUAUGACACGCAAAACGCGUGCUCCGUUGAAUGGAGUUUAUCAUG [A21C C87G]	-3.89
GGAUCUUCUCGAUCUAACAACAAAGACAAAUCUGCCACAAAGCUUGAGAGCAUCUUCGGAUGCAGAGGCGGCAGCCUUCGGUGGUGCGAUAGCGCCAACGUUCUCAACUAUGACACGCAAAACGCGUGCUCCGUUGAAUGGAGUUUAUCAUG [A21C C85U]	-0.369
GGAUCUUCUCGAUCUAACAACAAAGACAAAUCUGCCACAAAGCUUGAGAGCAUCUUCGGAUGCAGAGGCGGCAGCCUUCGGUGGCGCGAUAGUGCCAACGUUCUCAACUAUGACACGCAAAACGCGUGCUCCGUUGAAUGGAGUUUAUCAUG [A21C C93U]	-1.24
GGAUCUUCUCGAUCUAACAACAAAGACAAAUCUGCCACAAAGCUUGAGAGCAUCUUCGGAUGCAGAGGCGGCAGCCUUCGGUGGCGCGAUAGGGCCAACGUUCUCAACUAUGACACGCAAAACGCGUGCUCCGUUGAAUGGAGUUUAUCAUG [A21C C93G]	-3
